Test system: HpyCH4V restriction endonuclease (Helicobacter pylori CH4)
Assay: cleavage_in_vitro
Settings: fragments of 576, 498, 441, 335, 315, 312, 296, 244, 205 bp and 12 smaller than 200 bp

In the case of pBR322 DNA, the number of cleavage fragments is reported as 21 fragments.
